Assay results: patent US20200384081A1 (Janssen / Centocor, published 2020)
Changes are numbered by the printed parent chain. One block for each molecule: values may come before it.

Experiments:
IL-12 (mouse) (mouse) = IL-12 (mouse) (mouse) (UniProt P43432); experiment: cell-based or functional assay; conditions: scale: fold more effective than the anti-p35 mAb
[1] = target: T1, human p40 single mutant L40T (human, UniProt P29460 23-328); experiment: capture assay, relative binding affinity of the mAb to p40 muteins (FIG. 4)
T1 construct: HEK293E supernatant
T1 sequence: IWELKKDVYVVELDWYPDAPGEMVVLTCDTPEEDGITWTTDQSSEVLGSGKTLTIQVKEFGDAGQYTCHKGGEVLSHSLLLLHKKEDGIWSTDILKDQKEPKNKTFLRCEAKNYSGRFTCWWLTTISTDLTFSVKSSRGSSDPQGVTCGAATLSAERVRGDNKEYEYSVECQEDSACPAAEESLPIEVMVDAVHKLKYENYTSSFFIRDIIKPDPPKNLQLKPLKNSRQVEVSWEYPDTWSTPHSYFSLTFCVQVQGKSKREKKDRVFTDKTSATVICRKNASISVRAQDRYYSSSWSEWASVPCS
Description: (§1) In brief, MSD high bind plates (Meso Scale Discovery, MD) were coated with 5 μl of a capture monoclonal antibody (5 μg/ml) at room temperature for 1 hour. […] One-hundred and fifty (150) μl of 5% MSD Blocker A buffer was added to each well and incubated for 1 hr at room temperature. Plates were washed three times with 0.1 M HEPES buffer (pH 7.4). These protein-charged ELISA plates were incubated with 25 μl of different transiently expressed p40 mutant supernatants (1:10 dilution with 0.1 M HEPES buffer, pH 7.4) for 1 hr at room temperature. The plates were washed three times with 0.1 M HEPES buffer (pH 7.4). Twenty-five (25) μ1 of different concentrations of MSD Sulfo-TAG labeled p40 mAb, ranging from 0 to 20 μg/ml, were dispensed to micro-wells. After incubation for 2 hrs shaking at room temperature, plates were washed 3 times with 0.1 M HEPES buffer (pH 7.4). One hundred and fifty (150) μ1 of diluted MSD Read Buffer T was dispensed into each well and the plates were analyzed with a SECTOR imager (MSD).

[2] = target: T2, human p40 single mutant E45A (human, UniProt P29460 23-328); experiment: as above
T2 construct: HEK293E supernatant
T2 sequence: T1 sequence with T40L, E45A
Description: as §1

[3] = target: T3, human p40 single mutant S43R (human, UniProt P29460 23-328); experiment: as above
T3 construct: HEK293E supernatant
T3 sequence: T1 sequence with T40L, S43R
Description: as §1

[4] = target: T4, human p40 single mutant M23T (human, UniProt P29460 23-328); experiment: as above
T4 construct: HEK293E supernatant
T4 sequence: T1 sequence with M23T, T40L
Description: as §1

Sequence of IL-12 (mouse) (mouse) (P43432 23-335 limits assumed, chain 1 of 2): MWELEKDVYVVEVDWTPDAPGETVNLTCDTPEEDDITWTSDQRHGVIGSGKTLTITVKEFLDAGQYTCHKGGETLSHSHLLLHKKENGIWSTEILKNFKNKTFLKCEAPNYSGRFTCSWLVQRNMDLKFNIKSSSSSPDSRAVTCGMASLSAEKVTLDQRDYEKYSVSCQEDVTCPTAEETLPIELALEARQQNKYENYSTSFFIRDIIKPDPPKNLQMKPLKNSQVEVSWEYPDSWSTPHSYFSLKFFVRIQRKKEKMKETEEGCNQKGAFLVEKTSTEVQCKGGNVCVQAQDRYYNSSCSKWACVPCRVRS
Sequence of IL-12 (mouse) (mouse) (P43431 23-215 limits assumed, chain 2 of 2, further chain): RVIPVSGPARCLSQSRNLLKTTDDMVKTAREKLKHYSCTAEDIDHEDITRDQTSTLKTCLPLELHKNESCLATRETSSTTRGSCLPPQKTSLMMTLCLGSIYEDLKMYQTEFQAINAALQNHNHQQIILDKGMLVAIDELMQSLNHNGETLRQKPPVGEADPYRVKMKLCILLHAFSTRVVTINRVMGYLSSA

neutralizing IL-12 (in vitro neutralization studies) (IL-12 (mouse) (mouse)): 5
Molecule: C17.8 (rat anti-mouse IL-12/IL-23p40, IgG2a) (antibody)

reduction of binding [1]: ~40%
reduction of binding [2]: ~70%
reduction of binding [3]: ~40%
reduction of binding [4]: ~40%
B1: IL-12/IL-23p40 mAb (antibody, V domains shown)
VH: EVQLVQSGAEVKKPGESLKISCKGSGYSFTTYWLGWVRQMPGKGLDWIGIMSPVDSDIRYSPSFQGQVTMSVDKSITTAYLQWNSLKASDTAMYYCARRRPGQGYFDFWGQGTLVTVSS
VL: DIQMTQSPSSLSASVGDRVTITCRASQGISSWLAWYQQKPEKAPKSLIYAASSLQSGVPSRFSGSGSGTDFTLTISSLQPEDFATYYCQQYNIYPYTFGQGTKLEIKR
notes: Fully human monoclonal IgG from a mammalian cell line, purified on protein A; also called IL-12/23p40 mAb; IL-12 p40 antibody
